Laboratory results taken from patent US20240383953A1 (BAYLOR COLLEGE OF MEDICINE, published 2024).

Target: the molecule itself
Assay: DSSO chemical crosslinking in HEK 293T cells
Excerpt: Applicant tested if endogenous NANOG could spontaneously assemble in H9 human embryonic stem cells (ESCs) as well as nucleofected NANOG in differentiated HEK 293T mammalian cells.

B1: NANOG ΔWR deletion mutant expressed in HEK 293T cells (other, human, UniProt Q9H9S0 1-305, looked up)
chain: MSVDPACPQSLPCFEASDCKESSPMPVICGPEENYPSLQMSSAEMPHTETVSPLPSSMDLLIQDSPDSSTSPKGKQPTSAEKSVAKKEDKVPVKKQKTRTVFSSTQLCVLNDRFQRQKYLSLQQMQELSNILNLSYKQVKTWFQNQRMKSKRWQKNNWPKNSNGVTQKASAPTYPSLYSSYHQGCLVNPTGNLPMYNCGEESLQSCMQFQPNSPASDLEAALEAAGEGLNVIQQTTRYFSTPQTMDLFLNYSMNMQPEDV
notes: whole, on cells; also called WR mutants
Does B1 bind?
Result: no binding
